# ± gives the uncertainty stated by the source.
# Assay: protein stability index of a GFP-peptide fusion (yeast GPS) (PSI 1-4); higher = more stable; sorted into four equal gates, so the index is relative within each strain
# How it was run: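 Tiled 17-residue yeast protein peptides were fused downstream of GFP in a plasmid that also expresses Cherry, and the pooled library was carried in yeast. Mid-log cultures in leucine-free medium were sorted into four equal gates by GFP/Cherry fluorescence ratio, and plasmids from each gate were PCR-amplified and Illumina-sequenced, with reads assigned to strains by barcodes. The protein stability index for each peptide was each gate's read frequency times its gate number, summed.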
Sequence,protein stability index (doa10∆),protein stability index (pdr5∆),protein stability index (san1∆),protein stability index (ubr1∆)
ALKGPVRDKLDEYQAAV [DPB4],3.31 ± 0.072,3.29 ± 0.05,3.2 ± 0.052,3.17 ± 0.064
QRRGPLVVYAEDNGIVK [RPL4A],3.43 ± 0.11,3.14 ± 0.095,2.46 ± 0.093,2.68 ± 0.11
AKKLPNGNWEVGVHIAD [DIS3],1.61 ± 0.16,2.25 ± 0.15,2.51 ± 0.19,3.25 ± 0.16
LLEPPAKELQGIDPDET [RPO31],3.19 ± 0.15,3.11 ± 0.14,3.31 ± 0.082,3.18 ± 0.12
KQQGVGLPTDAYVAIEQ [RPN8],2.78 ± 0.083,2.7 ± 0.15,2.89 ± 0.21,3.19 ± 0.1
KTVKELRQLLKERYTVE [RRI1],2.74 ± 0.054,2.1 ± 0.062,2.1 ± 0.066,3.06 ± 0.068
KKNNLEFGTYGKYVIAG [RPN14],2.51 ± 0.088,2.09 ± 0.069,1.79 ± 0.14,2.1 ± 0.065
RRGTALGIKKEKRIQYA [RPB2],1.95 ± 0.08,1.44 ± 0.14,2.33 ± 0.15,2.89 ± 0.072
KVPDISSDGQLKKFRES [BRR2],3.36 ± 0.13,3.49 ± 0.14,3.39 ± 0.07,3.54 ± 0.065
LGVKNLGLCCLLDVKLA [YCG1],1.54 ± 0.05,1.58 ± 0.045,1.82 ± 0.063,1.81 ± 0.038
HYGNEHIRRMVPLAMGI [RPN1],1.29 ± 0.082,1.33 ± 0.064,1.24 ± 0.091,1.47 ± 0.065
AFNFSFNTSRNVEPTEN [YAR002W/NUP60],3.3 ± 0.052,3.3 ± 0.079,3.41 ± 0.064,3.04 ± 0.051
NIKFLSKLEGTINKAVQ [ESC2],2.86 ± 0.11,3.35 ± 0.14,2.72 ± 0.1,2.91 ± 0.1
PTSPAYSPTSPSYSPTS [RPO21],2.89 ± 0.051,2.86 ± 0.045,2.73 ± 0.037,2.9 ± 0.035
QNYRLDGRSFDQFRDVE [RRP45],3.42 ± 0.15,3.26 ± 0.16,3.34 ± 0.13,3.32 ± 0.092
QESFINTMSAWVNMLLI [FAS2],2.2 ± 0.077,2.12 ± 0.085,2.08 ± 0.1,2.37 ± 0.066
VQRTMLELLNQLDGFSS [RPT5],2.99 ± 0.078,2.88 ± 0.072,2.83 ± 0.063,2.99 ± 0.05
GIKLALDPNLITLALSS [SRB4],2.21 ± 0.052,2.91 ± 0.065,2.58 ± 0.055,2.63 ± 0.04
QVPDSLDDQIFVCEKSI [RPN6],3.01 ± 0.2,3.19 ± 0.1,2.95 ± 0.084,2.92 ± 0.13
TIPLGGSVHKLPYAIAG [PRE3],2.97 ± 0.066,2.91 ± 0.085,2.84 ± 0.089,3.08 ± 0.045
WTIPHKKWNDLKNKNFK [SIR2],3.22 ± 0.14,3.38 ± 0.13,3.29 ± 0.11,3.23 ± 0.073
SSSANKLLQLFLTPMDS [YML103C/NUP188],1.81 ± 0.052,1.61 ± 0.059,1.64 ± 0.085,1.41 ± 0.042
YLAHEDNKEKDFELEIS [PRE10],2.84 ± 0.17,2.86 ± 0.12,3.23 ± 0.1,3.33 ± 0.072
EKIMILLVPLALLTKRL [CSN12],1.95 ± 0.045,1.47 ± 0.04,1.33 ± 0.069,1.3 ± 0.03
KFHKREVVEAVTVVDTP [RPL3],1.44 ± 0.075,1.55 ± 0.066,1.63 ± 0.18,1.45 ± 0.069
NPNPSSQRAQVVTMSVK [RPC37],2.3 ± 0.067,2.83 ± 0.071,2.1 ± 0.068,2.42 ± 0.075
VRNKSYPVYTRLRTLCR [DIS3],2.65 ± 0.08,2.83 ± 0.072,3.06 ± 0.11,2.46 ± 0.051
TSLLNKVLKSGSGVDSS [RRP42],2.87 ± 0.12,2.88 ± 0.077,2.6 ± 0.13,3.21 ± 0.12

Sequence,protein stability index (doa10∆),protein stability index (pdr5∆),protein stability index (san1∆),protein stability index (ubr1∆)
ASEREELALIEEAYDNP [PRP8],3 ± 0.12,3.23 ± 0.096,3.35 ± 0.065,3.5 ± 0.14
EDKFLYGDGNGKGDNDN [SWI3],3.48 ± 0.24,3.35 ± 0.16,3.4 ± 0.08,3.42 ± 0.15
WAGKRLWDQDIAIAGTG [COR1],3.25 ± 0.1,3.11 ± 0.12,2.56 ± 0.1,2.66 ± 0.072
QQYVAAGDLRALDTVTN [FAS1],2.88 ± 0.087,2.87 ± 0.081,2.92 ± 0.085,2.79 ± 0.13
GHSQFTSHYQNYHPNAS [RPN4],2.56 ± 0.049,2.44 ± 0.044,2.15 ± 0.09,2.22 ± 0.038
IRTQVNTGGESVVKKED [RGR1],3.32 ± 0.18,3.5 ± 0.093,3.41 ± 0.098,3.4 ± 0.088
DATANATANATANATAN [DSN1],3.25 ± 0.086,3.04 ± 0.071,3.37 ± 0.053,3.12 ± 0.043
HVKQCQETCDKLRARLV [SMC2],2.2 ± 0.18,2.74 ± 0.14,2.34 ± 0.11,2.21 ± 0.06
LKENAGSLTFLDNKGSG [YIL149C/MLP2],3.31 ± 0.17,3.37 ± 0.1,3.55 ± 0.12,3.48 ± 0.066
NVRSVIRSSRSRGIVIG [RPP1],3 ± 0.076,3.1 ± 0.078,3.15 ± 0.16,3.2 ± 0.072
TLSYDDISAAIVHSSDG [DLS1],2.65 ± 0.046,2.82 ± 0.053,2.72 ± 0.04,2.66 ± 0.046
RFTPGSFTNYITRSFKE [RPS0A],3.03 ± 0.16,3.36 ± 0.1,2.93 ± 0.1,3.07 ± 0.11
SSNCHVRQKIKTLKRMI [POP1],1.41 ± 0.04,1.75 ± 0.053,1.42 ± 0.091,2.01 ± 0.045
KTRKTYCKGKTCRKHTQ [RPL42A],2.45 ± 0.068,1.69 ± 0.068,2.75 ± 0.072,2.06 ± 0.043
LNVPVFQIVIEPLAIAL [ARP7],1.65 ± 0.052,1.66 ± 0.055,1.48 ± 0.078,1.25 ± 0.045
YNPKMIDDRDYVGNKRL [RET1],–,–,–,3.49 ± 0.26
SSTGNANTSNNLFGATA [YJL041W/NSP1],3.44 ± 0.084,3.31 ± 0.049,3.3 ± 0.051,3.29 ± 0.056
DEIHIPAPSKPVIDYEL [BRR2],3.19 ± 0.073,3.08 ± 0.077,2.88 ± 0.059,2.78 ± 0.061
LCKSATTKMWPTNCPLR [BRR2],2.82 ± 0.13,2.68 ± 0.12,2.58 ± 0.081,2.75 ± 0.094
EVAIRDVNLDVRIHSIQ [IRR1],2.4 ± 0.06,2.1 ± 0.061,2.49 ± 0.059,1.68 ± 0.052
SSTDEESWFKALAGSEI [FAS1],3.32 ± 0.12,3.34 ± 0.14,3.11 ± 0.11,3.3 ± 0.081
STKLSRPFDSFGKLLQA [ITC1],2.42 ± 0.054,2.67 ± 0.066,2.35 ± 0.057,2.03 ± 0.063
FVVPTFGQDVSPMINST [SNM1],2.94 ± 0.084,2.89 ± 0.085,2.89 ± 0.056,2.84 ± 0.067
RQLANLIPFIVKQVLLS [NUT1],1.62 ± 0.032,1.55 ± 0.028,1.59 ± 0.051,1.69 ± 0.033
RNISFSDNNSRIMSRNF [SWI1],2.93 ± 0.047,2.85 ± 0.057,2.9 ± 0.068,3.16 ± 0.035
KNKDSLVSNPHEIYGSM [SRB4],3.04 ± 0.084,3.09 ± 0.09,2.96 ± 0.07,3.26 ± 0.14
EHIIRDVHNGYILRYLH [COB],2.35 ± 0.23,1.7 ± 0.13,1.39 ± 0.16,2 ± 0.11
